# Results taken from paper PMC12355088, “Structural analysis of TRIM family PRYSPRY domains and its implications for E3-ligand design” (Journal of Structural Biology: X, 2025).
# Biological target: the molecule itself
# Test: SEC; Superdex-75 column, elution compared with marker proteins (BSA, ovalbumin, carbonic anhydrase, ribonuclease A)
protein,measurement,value
"TRIM36 PRYSPRY domain (domain or fragment, human, PRYSPRY domain of human TRIM36, with an additional C-terminal helix; theoretical MW of the dimer 52.4 kDa; Cloned into pNIC-CTH0; also called TRIM36 domain) TPPAPVFSFLFDEKCGYNNEHLLLNLKRDRVESRAGFNLLLAAERIQVGYYTSLDYIIGDTGITKGKHFWAFRVEPYSYLVKVGVASSDKLQEWLRSPRDAVSPRYEQDSGHDSGSEDACFDSSQPFTLVTIGMQKFFIPKSPTSSNEPENRVLPMPTSIGIFLDCDKGKVDFYDMDQMKCLYERQVDCSHTLYPAFALMGSGGIQLEEPITAKYLEYQEDM",stoichiometry N,2
